Assay results from patent US11279941B2, “Method for introducing protein into plant cell” (RIKEN, priority 2016, dated 2022).

How the values were obtained:
[1] = tested on: YFP-expressing Arabidopsis thaliana leaf; experiment: Quantification of peptide delivery efficiency (protein extracted from contacted leaf, PAGE fluorescence); assay type: in vivo; conditions: 6 hours after contact; for peptide/protein molar ratio at which the amount of the collected protein was the greatest: BSA-RhB
Procedure: (§1) About 100 μl of the solution of the carrier peptide/protein complex (the (BP100)2K/BSA-RhB or BP100(KH)9/BSA-RhB complex) prepared in Example 1 was brought into direct contact with an YFP-expressing Arabidopsis thaliana leaf at various peptide/protein molar ratios (1, 5, 10, and 25) with a needleless syringe. Also, about […] of the solution of the carrier peptide/protein complex (the (BP100)2Ks/ADH-RhB complex) prepared in Example 1 was brought into direct contact with an YFP-expressing Arabidopsis thaliana leaf at the peptide/protein molar ratio of 10.
A transgenic YFP-expressing Arabidopsis thaliana leaf was collected 6 hours after bringing it into contact with the (BP100)2K8/BSA-RhB or BP100(KH)9/BSA-RhB complex, and the leaf was washed 2 times with PBS (D-PBS(−), Wako Pure Chemical Industries Ltd., Osaka, Japan) to remove excess BSA-RhB on the leaf surface. Total crude protein extracted from the contacted leaf with 1× lysis buffer (Promega, Madison, U.S.A.) was subjected to 4 to 15% tris-glycine-sodium dodecyl sulfate (SDS)-polyacrylamide gel electrophoresis (PAGE) (Bio-rad, California, U.S.A.) at a constant voltage of 100 V. Thereafter, the BSA-RhB fluorescence was detected at the excitation light of 520 nm and the emission light of 605 nm with the Luminoimage analyzer (LAS-3000, Fujifilm Corporation, Tokyo, Japan). After detecting the fluorescence, the gel was stained with Coomassie blue G250 (Bio-rad, California, U.S.A.) to detect the Rubisco large subunit. The BSA-RhB fluorescence band density and the Coomassie blue-stained rbcL band density were quantified using Image J64 (NIH, Bethesda, Md.), and the BSA-RhB band density was normalized against the rbcL band density. SDS-PAGE was performed again based on the normalized data. The volume of the subjected crude protein in each sample was adjusted, in such a manner that the band density of Coomassie blue-stained rbcL bands would be equivalent to each other among all the tested samples, so as to attain the BSA-RhB band having the normalized fluorescence intensity. […] The total amount of the BSA-RhB protein collected from the contacted leaf was calculated in accordance with the formulae below.
The total amount (μg) of the BSA-RhB protein extracted per contacted leaf=(the amount (μg) of the protein corresponding to the RhB intensity measured per lane of the gel/the volume (μl) of the subjected crude protein per lane of the gel)×the total volume (l) of the extracted crude protein. […]
The obtained data are shown as the mean the standard deviation (SD) of the three tests. […] A statistic difference was determined at a statistic significance of p<0.05 via analysis of variance (ANOVA) and the Tukey's honestly significant difference (HSD) test.

[2] = Hydrodynamic diameter and PDI by dynamic light scattering (DLS); assay type: physicochemical; conditions: protein not forming the complex (no carrier peptide)
Procedure: (§2) A solution of 1.0 g/l of the peptide ((BP100)2K or BP100(KH)9) was mixed with 2 μg of the protein (the BSA-RhB conjugate) at various peptide/protein molar ratios (1, 5, 10, and 25) at 25° C. for about 5 minutes to prepare carrier peptide/protein complexes, and the resultants were diluted to the final volume of 100 μl with autoclaved ultrapure water (MilliQ water). Thereafter, 10 µl of the solution was taken and further diluted to the final volume of 100 μl. The average hydrodynamic diameter of the complexes was measured via dynamic light scattering (DLS) using Zetasizer Nano-ZS (Malvern Instruments, Ltd., Worcestershire, U.K.). Polydispersion indexes (PDI) were determined with the zeta nanosizer (Zetasizer software ver 6.20) using He—Ne laser (633 nm) at 25° C. and a backscattering detection angle of 173°. Thereafter, the sample was further diluted to the total volume of 750 μl with autoclaved ultrapure water (MilliQ water), and the zeta potential was analyzed via laser Doppler microelectrophoresis using Zetasizer Nano-ZS. The zeta potential and zeta shift of the samples were measured three times and the average was determined with Zetasizer software ver 6.20.

[3] = Zeta potential by laser Doppler microelectrophoresis; assay type: physicochemical; conditions: protein not forming the complex (no carrier peptide)
Procedure: as §2

[4] = tested on: YFP-expressing Arabidopsis thaliana leaf; experiment: Incorporation of carrier peptide/protein complex into cells (CLSM); assay type: in vivo; conditions: ADH-RhB alone, absence of carrier peptide, data not shown
Procedure: as §1
Incorporation of proteins into cells was quantitatively assayed using a confocal laser scanning microscope (CLSM, Carl Zeiss, Oberkochen, Germany). Intracellular delivery of the peptide/BSA-RhB complex or the peptide/ADH-RhB complex to an YFP-expressing Arabidopsis thaliana leaf was observed by detecting the YFP fluorescence at the excitation light of 488 nm and detecting the RhB fluorescence at the excitation light of 555 nm.

Molecule: KKLFKKILKYLKKLFKKILKYLKKKKKKKK (SEQ ID NO: 23) [(BP100)2K8, carrier peptide, fusion of BP100 and oligolysine]
- peptide/protein molar ratio at which the amount of the collected protein was the greatest [1]: 10
- protein delivery capacity (BSA-RhB extracted from leaf) ([1]; all peptide/protein molar ratios (1-25)): superior to that of the BP100(KH)9 fusion peptide

Molecule: KKLFKKILKYLKHKHKHKHKHKHKHKHKH (SEQ ID NO: 24) [BP100(KH)9, carrier peptide]
- peptide/protein molar ratio at which the amount of the collected protein was the greatest [1]: 5

Molecule: BSA-RhB: bovine serum albumin labeled with rhodamine B isothiocyanate, 4 RhB molecules per BSA [reference compound]
- Hydrodynamic diameter [2]: 92±2 nm
- Zeta potential [3]: −35.3±1.5 mV
- BSA-RhB extracted from the leaf ([1]; with or without carrier peptide): extracted from the leaf only when the carrier peptide was used

B1: ADH-RhB: alcohol dehydrogenase (150 kDa) labeled with rhodamine B isothiocyanate, 6 RhB molecules per ADH (conjugate)
chain: SIPETQKGVIFYESHGKLEYKDIPVPKPKANELLINVKYSGVCHTDLHAWHGDWPLPVKLPLVGGHEGAGVVVGMGENVKGWKIGDYAGIKWLNGSCMACEYCELGNESNCPHADLSGYTHDGSFQQYATADAVQAAHIPQGTDLAQVAPILCAGITVYKALKSANLMAGHWVAISGAAGGLGSLAVQYAKAMGYRVLGIDGGEGKEELFRSIGGEVFIDFTKEKDIVGAVLKATDGGAHGVINVSVSEAAIEASTRYVRANGTTVLVGMPAGAKCCSDVFNQVVKSISIVGSYVGNRADTREALDFFARGLVKSPIKVVGLSTLPEIYEKMEKGQIVGRYVVDTSK
- Hydrodynamic diameter [2]: 168±7 nm
- Zeta potential [3]: −43.1±1.1 mV
- ADH-RhB signal in leaf [4]: not detected
